These are literature values, as cited in patent US9770419B2, “Methods and compositions of camel derived products” (priority 2012, dated 2017).

One data set has as its system HCV (genotype 4a). The conditions noted are these: compared with human, bovine and sheep lactoferrin.
Data set [1] relates to colon cancer cell line, HCT-116. The settings on record: in vitro.

B1: Camel Lactoferrin: iron containing protein, molecular mass 76-80 kDa, 689 amino acids residues, isolated from camel milk (protein, UniProt Q9TUM0 20-708, looked up)
Lactotransferrin: ASKKSVRWCTTSPAESSKCAQWQRRMKKVRGPSVTCVKKTSRFECIQAISTEKADAVTLDGGLVYDAGLDPYKLRPIAAEVYGTENNPQTHYYAVAIAKKGTNFQLNQLQGLKSCHTGLGRSAGWNIPMGLLRPFLDWTGPPEPLQKAVAKFFSASCVPCVDGKEYPNLCQLCAGTGENKCACSSQEPYFGYSGAFKCLQDGAGDVAFVKDSTVFESLPAKADRDQYELLCPNNTRKPVDAFQECHLARVPSHAVVARSVNGKEDLIWKLLVKAQEKFGRGKPSGFQLFGSPAGQKDLLFKDSALGLLRISSKIDSGLYLGSNYITAIRGLRETAAEVELRRAQVVWCAVGSDEQLKCQEWSRQSNQSVVCATASTTEDCIALVLKGEADALSLDGGYIYIAGKCGLVPVLAESQQSPESSGLDCVHRPVKGYLAVAVVRKANDKITWNSLRGKKSCHTAVDRTAGWNIPMGLLSKNTDSCRFDEFLSQSCAPGSDPRSKLCALCAGNEEGQNKCVPNSSERYYGYTGAFRCLAENVGDVAFVKDVTVLDNTDGKNTEQWAKDLKLGDFELLCLNGTRKPVTEAESCHLAVAPNHAVVSRIDKVAHLEQVLLRQQAHFGRNGRDCPGKFCLFQSKTKNLLFNDNTECLAKLQGKTTYEEYLGPQYVTAIAKLRRCSTSPLLEACAFLMR
As to B1, in the data set on DNA damage, the DNA damage entry is recorded as “inhibit” and the antioxidant activities result is recorded as “exhibits antioxidant activities”. In the data set with HCV (genotype 4a), the “inhibitory effect on HCV” value is “higher than human, bovine and sheep lactoferrin”. Further, the “proliferation of HCT-116” value in data set [1] is recorded as “inhibit the proliferation”.
